The source of these data is article PMC10352329.

The Kd is the concentration at which binding is half-saturated.

Data set [1] concerns the target human p300BRP (residues 1048–1282), 4A-substituted mutant (R1133A, K1134A, R1137A, K1140A) (human) (UniProt Q09472). Put plainly: MST; p300BRP fluorescently labeled (His tag Labeling Kit), 2-fold serial dilutions of 180-bp nucleosome; 10 mM HEPES-NaOH pH 7.4, 150 mM NaCl, 0.05% Tween-20; 25 °C; Hill equation, half-saturation concentration (K1/2).
Data set [2] deals with human p300BRP (residues 1048–1282), wild type (human) (UniProt Q09472). The description is as above.
human p300BRP (residues 1048–1282), wild type (human), sequence (Q09472 1048-1282): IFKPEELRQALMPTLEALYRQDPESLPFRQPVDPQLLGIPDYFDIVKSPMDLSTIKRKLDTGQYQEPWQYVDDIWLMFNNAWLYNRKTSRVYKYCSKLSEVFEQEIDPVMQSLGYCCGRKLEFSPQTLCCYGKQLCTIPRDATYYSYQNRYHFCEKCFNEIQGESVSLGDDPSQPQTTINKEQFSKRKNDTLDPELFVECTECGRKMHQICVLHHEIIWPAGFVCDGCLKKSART
Data set [3] deals with human p300BRP (residues 1048–1282), 4A-substituted mutant (R1133A, K1134A, R1137A, K1140A) (human) (UniProt Q09472). Put plainly: MST; as a2, but p300BRP incubated beforehand with 10 μM CBP30 (inhibitor of the bromodomain pocket) for at least 20 min.
human p300BRP (residues 1048–1282), 4A-substituted mutant (R1133A, K1134A, R1137A, K1140A) (human), sequence (Q09472 1048-1282 R1133A/K1134A/R1137A/K1140A): as the sequence (Q09472 1048-1282) above, with R86A, K87A, R90A, K93A counted along it
For data set [4], the target named is human p300BRP (residues 1048–1282), wild type (human) (UniProt Q09472). Described as above.
Data set [5] has as its system p300 BRP wild-type (Homo sapiens). Put plainly: MST. As to conditions: human octamer H2A type 1-B/E, H2B type 1-J, MST and cryo-EM sample buffers not in the material, MST 10 µM CBP30 where stated.
Data set [6] concerns p300 BRP 4A (Homo sapiens). Put plainly: MST. As to conditions: human octamer H2A type 1-B/E, H2B type 1-J, MST and cryo-EM sample buffers not in the material, MST 10 µM CBP30 where stated.
The target in data set [7] is Histone H4 K8ac/K12ac (Homo sapiens) (UniProt P62805). As to conditions: cited from earlier work.
Data set [8] addresses Histone H4 K12ac/K16ac (Homo sapiens) (UniProt P62805). The following applies: cited from earlier work.
The mark [9] stands for this setting: no CBP30, H3.1, H4 with K12ac/K16ac.

For “180-bp nucleosome having H4K12ac/K16ac (H4acNuc) (from UniProt P04908 1-130; P68431 1-136; P62805 1-103) (complex)”, the K1/2 (half-saturation concentration) in data set [1] worked out at 1.8 nM; in data set [2], 0.35 nM. Further, the results for the K1/2 (half-saturation concentration) after incubation with CBP30 in data set [3] and in data set [4] were 3.5 nM and 1.2 nM, respectively.
In data set [2], “180-bp unmodified nucleosome (from UniProt P04908 1-130; P68431 1-136; P62805 1-103) (complex)” came in with a K1/2 (half-saturation concentration) of 2.2 nM.
Consider H4acNuc (180-bp, H4K12ac/K16ac), for which the K half in data set [5] (H3.1, H4 with K12ac/K16ac) is 1.2 nM; in data set [5] (setting [9]) it was 0.35 nM; in data set [6] (H3.1, H4 with K12ac/K16ac), 3.5 nM; in data set [6] (setting [9]), 1.8 nM.
As for “p300/CBP bromodomain bromodomain (from UniProt Q09472)”, the Kd in data set [7] is 90 µM; in data set [8], 25 µM.
unmodified 180-bp nucleosome: the K half stood at 2.2 nM in data set [5] (no CBP30, H3.1, H4, unmodified) and 7.3 nM in data set [6] (no CBP30, H3.1, H4, unmodified).
